These are literature values, as cited in PMC4858162.

One may read the Kd as a measure of binding affinity in units of concentration.

The target of this series is DNA polymerase III beta sliding clamp (Escherichia coli) (UniProt P0A988).

As to “DNA polymerase III beta sliding clamp (from UniProt P0A988)”, the Kd was below 0.06 nM.
